These results are taken from patent publication US20120276009A1 (KATHOLIEKE UNIVERSITEIT LEUVEN, published 2012).

Assay [1] deals with T1, T1.6: Tau5-20 (non-phosphorylated peptide) (human).
T1 construct: Non-phosphorylated counterpart of T1.5; also called Tau peptide
T1 peptide: RQEFEVMEDHAGTYGL
In words: ELISA, peptide coated at 10 µg/mL. On the technique in general: In an ELISA, binding on a coated surface is turned into a signal by an enzyme label.

Assay [2] concerns the target T2, full-length (441 aa) human Tau protein (human, UniProt P10636 1-758).
T2 construct: Non-phosphorylated recombinant protein bought from SignalChem; also called Full-length Tau; Tau40
In words: ELISA, protein coated at 1 µg/mL.

T2 sequence (P10636 other isoform, or with tags, fused parts or gaps limits assumed): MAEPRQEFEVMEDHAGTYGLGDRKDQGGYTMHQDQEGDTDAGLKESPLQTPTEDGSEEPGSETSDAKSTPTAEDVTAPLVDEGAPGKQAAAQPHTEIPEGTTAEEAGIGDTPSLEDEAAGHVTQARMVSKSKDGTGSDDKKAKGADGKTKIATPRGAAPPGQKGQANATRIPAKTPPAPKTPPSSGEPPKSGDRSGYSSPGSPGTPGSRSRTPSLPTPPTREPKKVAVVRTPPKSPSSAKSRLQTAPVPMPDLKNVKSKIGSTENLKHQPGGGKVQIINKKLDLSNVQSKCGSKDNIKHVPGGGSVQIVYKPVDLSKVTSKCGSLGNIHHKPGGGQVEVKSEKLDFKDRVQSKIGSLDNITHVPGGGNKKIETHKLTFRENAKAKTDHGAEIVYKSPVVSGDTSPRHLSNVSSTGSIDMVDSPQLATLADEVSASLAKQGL

B1: ACI-33-6C10-Ab2 (antibody, IgG3, V domains shown)
VH: EVQLVESGGGLVKPGGSLKLSCAPSGFTFSDYGMHWVRQAPEKGLEWVAYISSGSSTIYYGDTVKGRFTISRDNAKNTLFLQMTSLRSEDTAMYYCARRGQLRLRLFAYWGQGTLVTVSA
VL: DIVMTQSHKFMSTSVGDRVSITCKASQDVSTAVAWYQQKPGQSPKLLIYSASYRYTGVPDRFTGSGSGTDFTFTISSVQAEDLAVYYCQQHYTTPLTFGAGTKLELK
notes: Mouse monoclonal from hybridoma 6C10E5E9C12 (DSM ACC3081); also called 6C10E5E9C12
Take B1: the binding result in assay [1] is “no binding (tested: 20 µg/mL)”.

B2: ACI-35-2G5-Ab1 (antibody, IgG2b, V domains shown)
VH: QVQLKQSGAELVRPGASVKLSCKASGYTFTDYYINWVKQRPGQGLEWIARIYPGRGNIYYNEKFKGKATLTAEKSSSTAYMQLSSLTSEDSAVYFCARFWDVTYWGQGTLVTVSA
VL: DVLMTQTPLSLPVSLGDQASISCRSSQSIVHSNGNTYLEWFLQKPGQSPKLLIYKVSNRFSGVPDRFSGSGSGTDFTLKISRVEAEDLGVYYCFQGSHVPYTFGGGTKLEIK
notes: Mouse monoclonal from hybridoma A6-2G5-08; also called A6-2G5-08
B2: in assay [2], the binding result is “no binding (tested: 20 µg/mL)”.
